Data published in paper PMC3057708 (Molecular Biology of the Cell, 2011).

B1: GST-Sec4 (natural protein)
chain: MSGLRTVSASSGNGKSYDSIMKILLIGDSGVGKSCLLVRFVEDKFNPSFITTIGIDFKIKTVDINGKKVKLQLWDTAGQERFRTITTAYYRGAMGIILVYDVTDERTFTNIKQWFKTVNEHANDEAQLLLVGNKSDMETRVVTADQGEALAKELGIPFIESSAKNDDNVNEIFFTLAKLIQEKIDSNKLVGVGNGKEGNISINSGSGNSSKSNCC
B2: purified full-length Sro7, soluble (natural protein)
chain: MFGSKRLKNVKEAFKSLKGQNSETPIENSKASFKSKNSKTSTISKDAKSSSSLKIPISSNNKNKIFSLAETNKYGMSSKPIAAAFDFTQNLLAIATVTGEVHIYGQQQVEVVIKLEDRSAIKEMRFVKGIYLVVINAKDTVYVLSLYSQKVLTTVFVPGKITSIDTDASLDWMLIGLQNGSMIVYDIDRDQLSSFKLDNLQKSSFFPAARLSPIVSIQWNPRDIGTVLISYEYVTLTYSLVENEIKQSFIYELPPFAPGGDFSEKTNEKRTPKVIQSLYHPNSLHIITIHEDNSLVFWDANSGHMIMARTVFETEINVPQPDYIRDSSTNAAKISKVYWMCENNPEYTSLLISHKSISRGDNQSLTMIDLGYTPRYSITSYEGMKNYYANPKQMKIFPLPTNVPIVNILPIPRQSPYFAGCHNPGLILLILGNGEIETMLYPSGIFTDKASLFPQNLSWLRPLATTSMAASVPNKLWLGALSAAQNKDYLLKGGVRTKRQKLPAEYGTAFITGHSNGSVRIYDASHGDIQDNASFEVNLSRTLNKAKELAVDKISFAAETLELAVSIETGDVVLFKYEVNQFYSVENRPESGDLEMNFRRFSLNNTNGVLVDVRDRAPTGVRQGFMPSTAVHANKGKTSAINNSNIGFVGIAYAAGSLMLIDRRGPAIIYMENIREISGAQSACVTCIEFVIMEYGDDGYSSILMVCGTDMGEVITYKILPASGGKFDVQLMDITNVTSKGPIHKIDAFSKETKSSCLATIPKMQNLSKGLCIPGIVLITGFDDIRLITLGKSKSTHKGFKYPLAATGLSYISTVEKNNDRKNLTVIITLEINGHLRVFTIPDFKEQMSEHIPFPIAAKYITESSVLRNGDIAIRVSEFQASLFSTVKEQDTLAPVSDTLYINGIRIPYRPQVNSLQWARGTVYCTPAQLNELLGGVNRPASKYKESIIAEGSFSERSSDDNNANHPEHQYTKPTRKGRNSSYGVLRNVSRAVETRWDAVEDRFNDYATAMGETMNEAVEQTGKDVMKGALGF

Experiments:
[1] = target: B2; assay: pull-down
GST-Sec4 = target: B1; assay: pull-down

| binding result [1] | fold binding to GTPγS-bound Sec4 over GDP-bound Sec4 (GST-Sec4) | Binder |
| --- | --- | --- |
| binds | – | B1 |
| – | > 5 fold | B2 |
